# Target: 14-3-3 proteins
protein,measurement,value
"ARAF mutant (ARAF-S214P), full-length, with two FLAG tags and two STREP tags, expressed in HEK293T cells (protein) DYKDDDDKDYKDDDDKWSHPQFEKWSHPQFEKMEPPRGPPANGAEPSRAVGTVKVYLPNKQRTVVTVRDGMSVYDSLDKALKVRGLNQDCCVVYRLIKGRKTVTAWDTAIAPLDGEELIVEVLEDVPLTMHNFVRKTFFSLAFCDFCLKFLFHGFRCQTCGYKFHQHCSSKVPTVCVDMSTNRQQFYHSVQDLSGGSRQHEAPSNRPLNELLTPQGPSPRTQHCDPEHFPFPAPANAPLQRIRSTPTPNVHMVSTTAPMDSNLIQLTGQSFSTDAAGSRGGSDGTPRGSPSPASVSSGRKSPHSKSPAEQRERKSLADDKKKVKNLGYRDSGYYWEVPPSEVQLLKRIGTGSFGTVFRGRWHGDVAVKVLKVSQPTAEQAQAFKNEMQVLRKTRHVNILLFMGFMTRPGFAIITQWCEGSSLYHHLHVADTRFDMVQLIDVARQTAQGMDYLHAKNIIHRDLKSNNIFLHEGLTVKIGDFGLATVKTRWSGAQPLEQPSGSVLWMAAEVIRMQDPNPYSFQSDVYAYGVVLYELMTGSLPYSHIGCRDQIIFMVGRGYLSPDLSKISSNCPKAMRRLLSDCLKFQREERPLFPQILATIELLQRSLPKIERSASEPSLHRTQADELPACLLSAARLVP","activation of ERK1/2, as measured by increased phosphorylation","significantly greater activation of ERK1/2, as measured by increased phosphorylation, compared with HEK293T cells expressing wildtype (WT) ARAF"

# From patent US20220112558
